Experimental data published in patent publication US6133009.

Test system: HpyCH4V restriction endonuclease (Helicobacter pylori CH4)
Assay: cleavage_in_vitro
Conditions: fragments of 576, 498, 441, 335, 315, 312, 296, 244, 205 bp and 12 smaller than 200 bp

Substance: pBR322 DNA
- number of cleavage fragments: 21 fragments
